The nature of series [1]: Myc immunoblot of HEK293 whole cell lysates. The conditions noted are these: glycan lost; control: wild type.
A short description of series [2]: Myc immunoblot of HEK293 medium, with/without Ni-NTA enrichment. The note with it: glycan lost; control: wild type.

B1: rat IGSF1-2 (IGSF1 isoform 2): N44Q (protein)
parent chain: MMLRTFTLLLLCIWLNRGMTSMAAVESQPELWIESNYPQAPWENITLWCKSPSRVSSKFLLLKDNTQMTWIHPPYKTFQVSFFIGALTESNTGLYRCCYWNEKGWSKPSKILELEAPGQLPKPIFWIQAETPPFPGCNVNILCHGWLQDLVFMLFKEGYTEPIDYQVPTGTMAIFSIDNLAPENEGIYICRTHIQMLPTLWSEPSNPLKLVVAGGCAHGCWHLTIVIPGIMAG
In the case of B1, the expression_or_secretion entry in series [1] and in series [2] was “no change” throughout.

B2: murine IGSF1-2 (IGSF1 isoform 2): N43Q (protein)
parent chain: MMLRTFTLLLLCIWLNPGMTSLAVESQPELWIESNYPQAPWENITLWCKSPSRVSSKFLLLKDNSQMTWIRPPYKTFQVSFFIGALTESNTGLYRCCYWKEKGWSKPSKILELEAPGQLPKPIFWIQAETPPLPGCNVNIFCHGWLQDLVFMLFKEGYTEPVDYQVPTGTMAIFSIDNLAPENEGVYICRTHIQMLPTLWSEPSNPLKLVVAGGCGHGCWHLTIVIPGIMAG
As to B2, the expression_or_secretion result in series [1] and in series [2] was “no change” throughout.

The record behind these values is PMC5501590.
